US11517591B2, “Immunogenic peptides specific to BCMA and TACI antigens” (Dana-Farber Cancer Institute, Inc., priority 2017, dated 2022)
Each block holds one molecule with its values, some of them ahead of it.

Experiments:
[1] = tested on: tumor cells; assay: Combination of peptide stimulation/vaccination with immune modulatory drugs, peptide-specific CTL activity; type: cell-based, human; conditions: in combination with XBP1/CD138/CS1 peptide stimulation/vaccination
Text: Even in patients with refractory MINI relapsing after allotransplantation, long-lasting responses have been achieved with the infusion of donor lymphocytes (DLI). These early encouraging results of DLI have provided the framework for evaluation of active-specific immunotherapy approaches to treat MM. […] The success of vaccination depends on selection of the appropriate patient population, targeting antigens expressed selectively on tumor, and utilizing combination approaches to effectively induce and maintain antigen-specific memory anti-tumor immune responses. […] Importantly, these effects were confined primarily to antigen-specific CD45RO^+ memory CTL, with the most robust increases in IFN-γ and granzyme B production and CD8^+ T cell proliferation in response to tumor cells observed mainly within the specific CM subset.

[2] = tested on: patients with smoldering MM (SMM); assay: Clinical trials of XBP1/CD138/CS1 multipeptide vaccine in smoldering MM; type: in vivo, human; conditions: multipeptide vaccine in combination with lenalidomide
Text: Due to the encouraging preclinical results, the XBP1/CD138/CS1 multipeptide vaccine has been evaluated, alone and in combination with lenalidomide, in clinical trials to treat patients with smoldering MM (SMM), as well as in combination with anti-PD1 in clinical trials to treat patients with triple negative breast cancer. […] Although stable disease and responses have been observed in SMM, randomized trials are needed to assess whether time to progression from SMM to active disease can be prolonged by the peptide vaccination.

[3] = target: T1, HLA-A2 molecule (Homo sapiens, UniProt P04439, D140Y/D185E/D98H/E176V/E277Q/G131W/G231S/I119V/I121R/I166T/I218V/L300P/L318F/N151K/N90K/P208A/P217A/Q86G/Q94H/R138H/R169H/T345S); assay: HLA-A2 binding affinity assay on peptide-pulsed T2 cells (HLA-A2 up-regulation, flow cytometry MFI); conditions: for HLA-A2 binding affinity of native BCMA peptides: Example 12, six native peptides; for HLA-A2 specificity (up-regulation of HLA-A2 on T2 cells, MFI): native peptides 0-200 μg/ml, overnight, Example 3, FIGS. 2, 3; for HLA-A2 binding affinity, heteroclitic vs native peptide: Example 4, FIGS. 4 and 5; for change in HLA-A2 binding affinity of heteroclitic BCMA peptide compared to native peptide: Example 12, n=3, p<0.05; for HLA-A2 affinity of heteroclitic TACI peptide compared to native peptide: Example 13, peptide doses 50 μg/ml and 100 μg/ml
T1 construct: endogenous in cells; host or cells: T2 cell line (human B and T cell hybrid), provided by Dr. J. Molldrem
Method: The listed BCMA peptides were evaluated for HLA-A2-specific binding capacity using the T2 cell line. In the assay, T2 cells were washed, resuspended in serum-free AIM-V medium to a final concentration of 1×10^6 cells/ml and transferred into wells of a 24-well tissue culture plate. The cells were pulsed with different concentrations of respective BCMA peptide (0-200 μg/ml) plus 3 μg/ml human β2-microglobulin (Sigma) and incubated at 37° C., 5% CO2 in humidified air. Following overnight incubation, the cells were washed, stained with mouse anti-human HLA-A2-FITC mAb for 15 minutes at 4° C., washed and analyzed using a FACSort™ flow cytometer with CellQuest™ v2.1 software (Becton Dickinson, San Jose, Calif.). […] Among the BCMA peptides evaluated, “#4. […] (FIG. 2).
(§1) T2 cells were pulsed overnight with various doses of peptide plus β2-microglobulin (3 μg/ml) (Sigma, St Louis, Mo.). Following overnight incubation, the cells were stained with HLA-A2-PE mAb and analyzed using a FACSCanto™ flow cytometer (BD). Peptide/HLA-A2 complex stability was measured on peptide loaded T2 cells at 0, 2, 4, 6 and 14 hours post-brefeldin A treatment by staining with HLA-A2-PE mAb and flow cytometric analysis.
as §1, with “concentrations” for “doses”, “The stability of peptide/HLA-A2” for “Peptide/HLA-A2”, “binding” for “stability”, “treatment followed” for “treatment”

[4] = target: T1, HLA-A2 molecule; assay: Peptide/HLA-A2 complex stability on peptide-loaded T2 cells post-brefeldin A; type: binding
Method: The native and heteroclitic BCMA and TACI peptides were examined for HLA-A2 binding stability using the T2 cell line. T2 cells were pulsed with the respective peptide. After overnight incubation, the cells were washed to remove unbound peptide; they were evaluated for binding affinity as shown above and stability as following. The cells were incubated with 10 μg/ml Brefeldin A (Sigma) at 37° C. and 5% CO2 for 1 hour to block cell surface expression of newly synthesized HLA-A2 molecules. Peptide/HLA-A2 binding stability was evaluated at 0, 2, 4, 6 and 18 hours post-Brefeldin A treatment. Following the incubation period, the cells were harvested, washed, stained with mouse anti-human HLA-A2-FITC mAb and analyzed by flow cytometry. […] Therefore, the Heteroclitic #4 BCMA72-80 (YLMFLLRKI (SEQ ID NO: 13)) and Heteroclitic #3. TACI154-162 (YLSADQVAL (SEQ ID NO: 16) peptides were selected for further evaluation of their immunogenic potential to generate MM-specific cytotoxic T cells (CTLs).
as §1
as §1, with “concentrations” for “doses”, “The stability of peptide/HLA-A2” for “Peptide/HLA-A2”, “binding” for “stability”, “treatment followed” for “treatment”

[5] = tested on: CD3+ T cells obtained from HLA-A2+ donors; assay: Induction and phenotypic analysis of peptide-specific CTL by repeated peptide stimulation; type: cell-based, human
Method: The peptide-specific CTL were generated from different HLA-A2^+ normal donors for the evaluation of the functional activities targeting MM cell lines. To generate the peptide-specific CTL, mature dendritic cells (mDC) generated from the same donor were resuspended in serum-free AIM-V media and pulsed with 50 μg/ml of the Heteroclitic #4 BCMA72-80 (YLMFLLRKI (SEQ ID NO: 13)) peptide or “Heteroclitic #3 TACI154-162 (YLSADQVAL (SEQ ID NO: 16))” peptide, overnight at 37° C., 5% CO2 in humidified air. The peptide-pulsed mDC were washed, counted, irradiated at 10 Gy and used to prime CD3^+ T cells at a 1:20 antigen-presenting cells/peptide-to-CD3^+ T cell ratio in AIM-V media supplemented with 10% human AB serum. […] To maintain the T cells ex vivo, IL-2 (50 U/ml) was added to the cultures two days after the second stimulation. Control T cell cultures were maintained under the same culture conditions in the presence of IL-2 (50 U/ml), but without peptide stimulation. Phenotype of the resulting CTL was evaluated one week after each cycle of peptide stimulation. […] The BCMA peptide-specific CTL cultures contained a higher percentage of CD8^+ T cells (˜80%) upon 4 cycle of peptide stimulation compared to non-peptide stimulated control T cells (˜20%) (FIGS. 8A-8C).
Antigen-specific CTL can be phenotypically identified as activated/memory T cells from naïve T cells by their expression of distinct cell surface antigens. The phenotype of the BCMA-CTL were examined as potential effector cells by analyzing the phenotype of naïve and memory cells. BCMA peptide-specific CTL were generated by repeated stimulation of HLA-A2^+ normal donor's CD3^+ T cells weekly with antigen-presenting cells pulsed with 50 μg/ml heteroclitic BCMA72-80 (YLMFLLRKI (SEQ ID NO: 13)). One week after each peptide stimulation, the resulting CTL were evaluated for their phenotypic profile by flow cytometry.
BCMA peptide-specific CTL (BCMA-CTL) were generated ex vivo by repeated stimulation of CD3^+ T cells obtained from HLA-A2^+ donors with peptide-pulsed antigen-presenting cells (APC). In brief, peptide (50 μg/ml)-pulsed APC were irradiated (10 Gy) and used to stimulate T cells at a 1 APC/peptide: 20 T cell ratio. The T cell cultures were restimulated every 7 days and maintained in AIM-V medium supplemented with 10% human AB serum (BioWhittaker) in the presence of IL-2 (50 units/ml).
Phenotypic characterization was performed on BCMA-CTL after staining with Live/Dead Aqua stain kit and fluorochrome conjugated anti-human mAbs and Tetramer-PE. Alternatively, the MM and breast cancer cell lines were stained with fluorochrome-conjugated BCMA or HLA-A2 mAb. After staining, the cells were washed, fixed in 2% paraformaldehyde, and analyzed by flow cytometry.
TACI peptide-specific CTL (TACI-CTL) were generated ex vivo by repeated stimulation of enriched CD3^+ T cells obtained from HLA-A2^+ donors with peptide-pulsed antigen-presenting cells (APC). In brief, peptide (50 μg/ml)-pulsed APC were irradiated (10 Gy) and used to stimulate T cells at a 1:20 APC/peptide-to-T cell ratio. The T cell cultures were restimulated every 7 days and maintained in AIM-V medium supplemented with 10% human AB serum (BioWhittaker) in the presence of IL-2 (50 units/ml).
Phenotypic characterization was performed on the MM target cells to conform TACI expression. Phenotypic characterization was performed on the TACI-CTL after staining with Live/Dead Aqua stain kit and fluorochrome conjugated anti-human mAbs. After staining, the cells were washed, fixed in 2% paraformaldehyde, and analyzed by flow cytometry.

[6] = after 3 cycles of peptide stimulation
[7] = after 4 cycles of peptide stimulation

Molecule: O=C(CCCCCCNC(=O)c1cnc(N(c2ccccc2)c2ccccc2Cl)nc1)NO [ACY241]
- peptides-specific CTL activities against tumor cells [1]: enhanced the peptides-specific CTL activities against tumor cells

Molecule: Nc1cccc2c1CN(C1CCC(=O)NC1=O)C2=O (stereo not drawn) [lenalidomide]
- peptides-specific CTL activities against tumor cells [1]: enhanced the peptides-specific CTL activities against tumor cells
- CD8+ T cells with tetramer-positivity and IFN-γ production [2]: triggered higher mean fold increases in CD8^+ T cells with tetramer-positivity and IFN-γ production

Molecule: YILWTCLGL [heteroclitic hBCMA54-62, heteroclitic BCMA peptide]
- HLA-A2 stability of heteroclitic vs native BCMA peptide ([4]; Example 12): further enhanced
- HLA-A2 binding affinity, heteroclitic vs native peptide [3]: increased from their native peptide
- change in HLA-A2 binding affinity of heteroclitic BCMA peptide compared to native peptide [3]: highest increase in HLA-A2 binding affinity

Molecule: YLGLCLCAV [heteroclitic TACI166-174, heteroclitic TACI peptide]
- HLA-A2 affinity of heteroclitic TACI peptide compared to native peptide [3]: no significant improvement in HLA-A2 affinity

Molecule: YLVAVACFL [heteroclitic TACI178-186, heteroclitic TACI peptide]
- HLA-A2 affinity of heteroclitic TACI peptide compared to native peptide [3]: no significant improvement in HLA-A2 affinity

Continued, in another order:

- HLA-A2 specificity (up-regulation of HLA-A2 on T2 cells, MFI) [3]: second highest level of the specificity
Molecule: AILWTCLGL [BCMA54-62 (AILWTCLGL), native BCMA peptide]
- HLA-A2 binding affinity of native BCMA peptides [3]: highest HLA-A2 binding affinity in a dose-dependent manner

- HLA-A2 binding affinity of native BCMA peptides [3]: non-HLA-A2 specific
Molecule: SQNEYFDSL [BCMA9-17 (SQNEYFDSL), native BCMA peptide]

- HLA-A2 affinity of native TACI peptides ([3]; Example 13, six native peptides): highest level of affinity
- HLA-A2 specificity (up-regulation of HLA-A2 on T2 cells, MFI) [3]: highest level
Molecule: TLGLCLCAV [TACI166-174 (TLGLCLCAV), native TACI peptide]

- HLA-A2 specificity (up-regulation of HLA-A2 on T2 cells, MFI) [3]: highest level of HLA-A2 specificity
Molecule: VLMFLLRKI [BCMA72-80 (VLMFLLRKI), native BCMA peptide]
- HLA-A2 binding affinity of native BCMA peptides [3]: highest HLA-A2 binding affinity in a dose-dependent manner

- HLA-A2 binding affinity, heteroclitic vs native peptide [3]: increased from their native peptide
Molecule: YLSADQVAL [heteroclitic TACI154-162, heteroclitic TACI peptide]
- HLA-A2 binding stability, heteroclitic vs native peptide ([4]; 50 ug/ml, 0, 2, 4, 6 and 18 hours post-Brefeldin A, Example 4, FIGS. 6 and 7): significant improvement in their HLA-A2 affinity at all the time points evaluated
- HLA-A2 binding affinity (time=0) and stability compared to native peptide ([4]; TACI peptides 50 μg/ml, 2, 4, 6 and 18 hours): highest HLA-A2 binding affinity (time=0) and stability (2, 4, 6 and 18 hours)
- HLA-A2 affinity of heteroclitic TACI peptide compared to native peptide [3]: greatly enhanced affinity from its native form
- CM CD8+ T cells [5, 6]: 47.8%
- EM CD8+ T cells [5, 6]: 52.4%
- Naïve CD8+ T cells [5, 6]: 2.2%
- CM CD8+ T cells [5, 7]: 24.4%
- EM CD8+ T cells [5, 7]: 74.1%
- Naïve CD8+ T cells [5, 7]: 0.72%
- frequency of effector memory (CD45RO+/CCR7-) CD3+CD8+ T cells [5, 7]: increased
- CM CD8+ T cells ([5]; after 5 cycles of stimulation): 7.36%
- EM CD8+ T cells ([5]; after 5 cycles of stimulation): 69.7%
- Naïve CD8+ T cells ([5]; after 5 cycles of stimulation): 0.57%

- change in HLA-A2 binding affinity of heteroclitic BCMA peptide compared to native peptide [3]: did not alter its HLA-A2 affinity status
Molecule: YQNEYFDSL [heteroclite BCMA9-17, heteroclitic BCMA peptide]
